Assay results from patent US20250215104A1 (WALDEN BIOSCIENCES, published 2025).

Key:
[1] = molecular target: T1, human soluble urokinase plasminogen activator receptor (suPAR) (human, UniProt Q03405 23-303, limits assumed); assay: off-rate (kdis) screen of scFv clones, biosensor (Octet)
T1 construct: Target antigen of the off-rate screen; also called hsuPAR; human suPAR

[2] = molecular target: T2, cynomolgus soluble urokinase plasminogen activator receptor (suPAR) (cynomolgus, UniProt Q9GK78 23-303, limits assumed); assay: as above
T2 construct: Target antigen of the off-rate screen; also called cynomolgus uPAR; cynomolgus suPAR
T2 sequence (Q9GK78 23-303 limits assumed): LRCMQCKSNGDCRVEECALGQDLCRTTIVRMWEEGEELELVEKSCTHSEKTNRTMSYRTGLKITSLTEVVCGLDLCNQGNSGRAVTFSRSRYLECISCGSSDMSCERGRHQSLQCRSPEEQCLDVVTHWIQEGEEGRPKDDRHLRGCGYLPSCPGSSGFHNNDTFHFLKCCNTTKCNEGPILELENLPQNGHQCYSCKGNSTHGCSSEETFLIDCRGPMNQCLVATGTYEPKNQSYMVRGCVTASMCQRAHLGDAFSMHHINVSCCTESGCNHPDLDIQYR

[3] = molecular target: T3, human soluble urokinase plasminogen activator receptor (hsuPAR) (human, UniProt Q03405 23-303, limits assumed); assay: BLI (Octet) off-rate screen of scFv clones
T3 construct: Target antigen of the off-rate screen; also called human suPAR; rhuPAR-His
T3 sequence (Q03405 23-303 limits assumed): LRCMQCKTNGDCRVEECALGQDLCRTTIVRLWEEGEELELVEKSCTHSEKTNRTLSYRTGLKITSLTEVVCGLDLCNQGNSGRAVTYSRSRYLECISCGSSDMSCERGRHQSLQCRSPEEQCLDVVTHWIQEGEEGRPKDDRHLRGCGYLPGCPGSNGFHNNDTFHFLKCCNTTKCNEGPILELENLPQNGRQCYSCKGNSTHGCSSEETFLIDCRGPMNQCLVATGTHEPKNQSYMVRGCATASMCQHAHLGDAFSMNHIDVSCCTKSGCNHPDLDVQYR

[4] = molecular target: T4, cynomolgus suPAR (cynomolgus, UniProt Q9GK78 23-303, limits assumed); assay: BLI (Octet) off-rate screen of scFv clones
T4 construct: Target antigen of the off-rate screen; also called cynomolgus uPAR; cynoPLAUR-His
T4 sequence (Q9GK78 23-303 limits assumed): as the sequence (Q9GK78 23-303 limits assumed) above

T1 sequence (Q03405 23-303 limits assumed): as the sequence (Q03405 23-303 limits assumed) above

koff [1]	koff [2]	koff [3]	koff [4]	Binder
0.0117 s⁻¹	0.0212 s⁻¹			suPAR_DB01_E12 (scFv, V domains shown, screened as scFv) VH: QVQLVQSGAEVKKPGASVKVSCKASGGTFSSYAISWVRQAPGQGLEWLGVINPGGGGTNYAQKFQGRVTMTRDTSTSTVYMELSSLRSEDTAVYYCARGYDVDWFVTWGQGTLVTVSS VL: DIQMTQSPSSLSASVGDRVTITCQASQDISNYINWYQQKPGKAPKLLIYDASNLASGVPSRFSGSGSGTDFTLTISSLQPEDFATYYCQQYHSYPPTFGGGTKVEIK
		0.00347 s⁻¹	0.00026 s⁻¹	suPAR_DB03_B03 (scFv, V domains shown, screened as scFv) VH: QVQLVQSGAEVKKPGASVKVSCKASGYTFTNYYMHWVRQAPGQGLEWMGWIDPENGSTIYDQKFQGRVTMTRDTSTSTVYMELSSLRSEDTAVYYCARGYDVDWFVYWGQGTLVTVSS VL: DIQMTQSPSSLSASVGDRVTITCSARSSVSYMYWYQQKPGKAPKLLIYRTSNLASGVPSRFSGSGSGTDFTLTISSLQPEDFATYYCQQYHSYPPTFGGGTKVEIK
0.00446 s⁻¹	0.000246 s⁻¹			suPAR_DB01_E09 (scFv, V domains shown, screened as scFv) VH: QVQLVQSGAEVKKPGASVKVSCKASGYTFTSYYMHWVRQAPGQGLEWMGWIDHENGNTIYDQKFQGRVTMTRDTSTSTVYMELSSLRSEDTAVYYCARGYDVDWFVYWGQGTLVTVSS VL: DIQMTQSPSSLSASVGDRVTITCSARSSISYMYWYQQKPGKAPKLLIYRTSNLQSGVPSRFSGSGSGTDFTLTISSLQPEDFATYYCQQYHSYPPTFGGGTKVEIK
0.000564 s⁻¹	5.85e-07 s⁻¹			suPAR_DB01_E08 (scFv, V domains shown, screened as scFv) VH: QVQLVQSGAEVKKPGASVKVSCKASGYTFTGYYIHWVRQAPGQGLEWMGWIDHENGSTIYDQKFQGRVTMTRDTSTSTVYMELSSLRSEDTAVYYCARGYDVDWFVYWGQGTLVTVSS VL: DIQMTQSPSSLSASVGDRVTITCSARSSVSYMYWYQQKPGKAPKLLIYRTSNLASGVPSRFSGSGSGTDFTLTISSLQPEDFATYYCQQYHSYPPTFGGGTKVEIK
0.000638 s⁻¹	0.000369 s⁻¹			suPAR_DB01_E11 (scFv, V domains shown, screened as scFv) VH: QVQLVQSGAEVKKPGASVKVSCKASGYTFTNYYMHWVRQAPGQGLEWMGWIDHENGSTIYAQKFQGRVTMTRDTSTSTVYMELSSLRSEDTAVYYCARGYDVDWFVYWGQGTLVTVSS VL: DIQMTQSPSSLSASVGDRVTITCSARSSVSYMYWYQQKPGKAPKLLIYRTSNLASGVPSRFSGSGSGTDFTLTISSLQPEDFATYYCQQYHSYPPTFGGGTKVEIK
0.000618 s⁻¹	0.000203 s⁻¹			suPAR_DB01_F01 (scFv, V domains shown, screened as scFv) VH: QVQLVQSGAEVKKPGASVKVSCKASGYTFTSYYVHWVRQAPGQGLEWMGWIDHENGSTIYAQKFQGRVTMTRDTSTSTVYMELSSLRSEDTAVYYCARGYDVDWFVYWGQGTLVTVSS VL: DIQMTQSPSSLSASVGDRVTITCSARSSVSYMYWYQQKPGKAPKLLIYRTSNLASGVPSRFSGSGSGTDFTLTISSLQPEDFATYYCQQYHSYPPTFGGGTKVEIK
0.00162 s⁻¹	0.000104 s⁻¹			suPAR_DB01_E10 (scFv, V domains shown, screened as scFv) VH: QVQLVQSGAEVKKPGASVKVSCKASGYTFTGYYMHWVRQAPGQGLEWMGWIDHENGSTSYDQKFQGRVTMTRDTSTSTVYMELSSLRSEDTAVYYCARGYDVDWFVYWGQGTLVTVSS VL: DIQMTQSPSSLSASVGDRVTITCRARQSVSYMYWYQQKPGKAPKLLIYRTSNLASGVPSRFSGSGSGTDFTLTISSLQPEDFATYYCQQYHSYPPTFGGGTKVEIK

The remaining lines, values behind:

Binder	koff [1]	koff [2]	koff [3]	koff [4]
suPAR_DB01_D03 (scFv, V domains shown, screened as scFv) VH: QVQLVQSGAEVKKPGASVKVSCKASGGTFTNYYMHWVRQAPGQGLEWMGWIDHENGNTIYDQKFQGRVTMTRDTSTSTVYMELSSLRSEDTAVYYCARGYDVDWFVYWGQGTLVTVSS VL: DIQMTQSPSSLSASVGDRVTITCSARSSVSYMYWYQQKPGKAPKLLIYRTSNLASGVPSRFSGSGSGTDFTLTISSLQPEDFATYYCQQYHSYPPTFGGGTKVEIK	0.00362 s⁻¹	0.000203 s⁻¹		
suPAR_DB01_E07 (scFv, V domains shown, screened as scFv) VH: QVQLVQSGAEVKKPGASVKVSCKASGYTFTSYYMHWVRQAPGQGLEWMGWIDHENGNTIYDQKFQGRVTMTRDTSTSTVYMELSSLRSEDTAVYYCARGYDVDWFVYWGQGTLVTVSS VL: DIQMTQSPSSLSASVGDRVTITCRASSSVSYMYWYQQKPGKAPKLLIYRTSNLASGVPSRFSGSGSGTDFTLTISSLQPEDFATYYCQQYHSYPPTFGGGTKVEIK	0.00228 s⁻¹	6.72e-05 s⁻¹		
suPAR_DB01_D10 (scFv, V domains shown, screened as scFv) VH: QVQLVQSGAEVKKPGASVKVSCKASGYTFTGYYMHWVRQAPGQGLEWMGWIDHENGSTSYDQKFQGRVTMTRDTSTSTVYMELSSLRSEDTAVYYCARGYDVDWFVYWGQGTLVTVSS VL: DIQMTQSPSSLSASVGDRVTITCSARQSVSYMYWYQQKPGKAPKLLIYRTSNLASGVPSRFSGSGSGTDFTLTISSLQPEDFATYYCQQYHSYPPTFGGGTKVEIK	0.00147 s⁻¹	0.000148 s⁻¹		
suPAR_DB01_E02 (scFv, V domains shown, screened as scFv) VH: QVQLVQSGAEVKKPGASVKVSCKASGYTFTSYYMHWVRQAPGQGLEWMGWIDPEGGSTIYDQKFQGRVTMTRDTSTSTVYMELSSLRSEDTAVYYCARGYDVDWFVYWGQGTLVTVSS VL: DIQMTQSPSSLSASVGDRVTITCSARSSVSYMYWYQQKPGKAPKLLIYRTSNLASGVPSRFSGSGSGTDFTLTISSLQPEDFATYYCQQYHSYPPTFGGGTKVEIK	0.00469 s⁻¹	0.000347 s⁻¹		
suPAR_DB01_E06 (scFv, V domains shown, screened as scFv) VH: QVQLVQSGAEVKKPGASVKVSCKASGYTFINYYMHWVRQAPGQGLEWMGWIDPENGNTIYDQKFQGRVTMTRDTSTSTVYMELSSLRSEDTAVYYCARGYDVDWFVYWGQGTLVTVSS VL: DIQMTQSPSSLSASVGDRVTITCSARSSVSYMYWYQQKPGKAPKLLIYRTSNLASGVPSRFSGSGSGTDFTLTISSLQPEDFATYYCQQYHSYPPTFGGGTKVEIK	0.00224 s⁻¹	0.000218 s⁻¹		
suPAR_DB01_D05 (scFv, V domains shown, screened as scFv) VH: QVQLVQSGAEVKKPGASVKVSCKASGYTFTGSYVHWVRQAPGQGLEWMGWIDHENGNTIYDQKFQGRVTMTRDTSTSTVYMELSSLRSEDTAVYYCARGYDVDWFVYWGQGTLVTVSS VL: DIQMTQSPSSLSASVGDRVTITCSARQSVSYMYWYQQKPGKAPKLLIYRTSNLASGVPSRFSGSGSGTDFTLTISSLQPEDFATYYCQQYHSYPPTFGGGTKVEIK	0.00224 s⁻¹	0.000419 s⁻¹		
suPAR_DB01_D12 (scFv, V domains shown, screened as scFv) VH: QVQLVQSGAEVKKPGASVKVSCKASGYTFTSYYMHWVRQAPGQGLEWMGWIDPENGSTIYDQKFQGRVTMTRDTSTSTVYMELSSLRSEDTAVYYCARGYDVDWFVYWGQGTLVTVSS VL: DIQMTQSPSSLSASVGDRVTITCSARSSVSYMYWYQQKPGKAPKLLIYRTSNLASGVPSRFSGSGSGTDFTLTISSLQPEDFATYYCQQYHSYPPTFGGGTKVEIK	0.00382 s⁻¹	0.000232 s⁻¹		
suPAR_DB01_D08 (scFv, V domains shown, screened as scFv) VH: QVQLVQSGAEVKKPGASVKVSCKASGYTFTSYYMHWVRQAPGQGLEWMGWIDHENGSTIYAQKFQGRVTMTRDTSTSTVYMELSSLRSEDTAVYYCARGYDVDWFVYWGQGTLVTVSS VL: DIQMTQSPSSLSASVGDRVTITCRASSSVSYMYWYQQKPGKAPKLLIYRTSNLASGVPSRFSGSGSGTDFTLTISSLQPEDFATYYCQQYHSYPPTFGGGTKVEIK	0.000666 s⁻¹	7.01e-07 s⁻¹		
suPAR_DB01_D09 (scFv, V domains shown, screened as scFv) VH: QVQLVQSGAEVKKPGASVKVSCKASGYTFTNYYMHWVRQAPGQGLEWMGWIDHSNGNTIYAQKFQGRVTMTRDTSTSTVYMELSSLRSEDTAVYYCARGYDVDWFVYWGQGTLVTVSS VL: DIQMTQSPSSLSASVGDRVTITCSARSSVSYMYWYQQKPGKAPKLLIYRTSNLASGVPSRFSGSGSGTDFTLTISSLQPEDFATYYCQQYHSYPPTFGGGTKVEIK	0.00109 s⁻¹	0.000506 s⁻¹		
suPAR_DB01_E03 (scFv, V domains shown, screened as scFv) VH: QVQLVQSGAEVKKPGASVKVSCKASGYTFTDYYMHWVRQAPGQGLEWMGWIDHENGNTSYAQKFQGRVTMTRDTSTSTVYMELSSLRSEDTAVYYCARGYDVDWFVYWGQGTLVTVSS VL: DIQMTQSPSSLSASVGDRVTITCSARSSVSYMYWYQQKPGKAPKLLIYRTSNLASGVPSRFSGSGSGTDFTLTISSLQPEDFATYYCQQYHSYPPTFGGGTKVEIK	0.00402 s⁻¹	5.44e-05 s⁻¹		
suPAR_DB01_D04 (scFv, V domains shown, screened as scFv) VH: QVQLVQSGAEVKKPGASVKVSCKASGYTFTSYYMHWVRQAPGQGLEWMGWIDHENGSTIYAQKFQGRVTMTRDTSTSTVYMELSSLRSEDTAVYYCARGYDVDWFVYWGQGTLVTVSS VL: DIQMTQSPSSLSASVGDRVTITCSARSSVSYMYWYQQKPGKAPKLLIYRTSNLASGVPSRFSGSGSGTDFTLTISSLQPEDFATYYCQQYHSYPPTFGGGTKVEIK	0.000872 s⁻¹	2.53e-05 s⁻¹		
suPAR_DB01_E04 (scFv, V domains shown, screened as scFv) VH: QVQLVQSGAEVKKPGASVKVSCKASGYTFTGYYMHWVRQAPGQGLEWMGWIDHENGNTIYDQKFQGRVTMTRDTSTSTVYMELSSLRSEDTAVYYCARGYDVDWFVYWGQGTLVTVSS VL: DIQMTQSPSSLSASVGDRVTITCSARQSVSYMYWYQQKPGKAPKLLIYRTSNLASGVPSRFSGSGSGTDFTLTISSLQPEDFATYYCQQYHSYPPTFGGGTKVEIK	0.0014 s⁻¹	0.00031 s⁻¹		
suPAR_DB01_E01 (scFv, V domains shown, screened as scFv) VH: QVQLVQSGAEVKKPGASVKVSCKASGYSFTSYYMHWVRQAPGQGLEWMGWIDPEGGSTIYDQKFQGRVTMTRDTSTSTVYMELSSLRSEDTAVYYCARGYDVDWFVYWGQGTLVTVSS VL: DIQMTQSPSSLSASVGDRVTITCSARSSVSYMYWYQQKPGKAPKLLIYRTSNLASGVPSRFSGSGSGTDFTLTISSLQPEDFATYYCQQYHSYPPTFGGGTKVEIK	0.00474 s⁻¹	0.000254 s⁻¹		
